Assay results reported in patent publication US20240124865.
Where a chain is given by its changes, count along the chain named. Numbers in names are those of the source.

T1: FRETS-VWF73 substrate (VWF fragment comprising VWFA2 domain residues 1596 to 1668)
T1 chain: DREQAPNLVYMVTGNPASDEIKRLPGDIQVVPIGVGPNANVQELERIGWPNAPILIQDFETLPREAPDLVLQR

B1: ADAMTS13 A1144I variant (Exemplified A1144I variant) (protein)
chain: AAGGILHLELLVAVGPDVFQAHQEDTERYVLTNLNIGAELLRDPSLGAQFRVHLVKMVILTEPEGAPNITANLTSSLLSVCGWSQTINPEDDTDPGHADLVLYITRFDLELPDGNRQVRGVTQLGGACSPTWSCLITEDTGFDLGVTIAHEIGHSFGLEHDGAPGSGCGPSGHVMASDGAAPRAGLAWSPCSRRQLLSLLSAGRARCVWDPPRPQPGSAGHPPDAQPGLYYSANEQCRVAFGPKAVACTFAREHLDMCQALSCHTDPLDQSSCSRLLVPLLDGTECGVEKWCSKGRCRSLVELTPIAAVHGRWSSWGPRSPCSRSCGGGVVTRRRQCNNPRPAFGGRACVGADLQAEMCNTQACEKTQLEFMSQQCARTDGQPLRSSPGGASFYHWGAAVPHSQGDALCRHMCRAIGESFIMKRGDSFLDGTRCMPSGPREDGTLSLCVSGSCRTFGCDGRMDSQQVWDRCQVCGGDNSTCSPRKGSFTAGRAREYVTFLTVTPNLTSVYIANHRPLFTHLAVRIGGRYVVAGKMSISPNTTYPSLLEDGRVEYRVALTEDRLPRLEEIRIWGPLQEDADIQVYRRYGEEYGNLTRPDITFTYFQPKPRQAWVWAAVRGPCSVSCGAGLRWVNYSCLDQARKELVETVQCQGSQQPPAWPEACVLEPCPPYWAVGDFGPCSASCGGGLRERPVRCVEAQGSLLKTLPPARCRAGAQQPAVALETCNPQPCPARWEVSEPSSCTSAGGAGLALENETCVPGADGLEAPVTEGPGSVDEKLPAPEPCVGMSCPPGWGHLDATSAGEKAPSPWGSIRTGAQAAHVWTPAAGSCSVSCGRGLMELRFLCMDSALRVPVQEELCGLASKPGSRREVCQAVPCPARWQYKLAACSVSCGRGVVRRILYCARAHGEDDGEEILLDTQCQGLPRPEPQEACSLEPCPPRWKVMSLGPCSASCGLGTARRSVACVQLDQGQDVEVDEAACAALVRPEASVPCLIADCTYRWHVGTWMECSVSCGDGIQRRRDTCLGPQAQAPVPADFCQHLPKPVTVRGCWAGPCVGQGTPSLVPHEEIAAPGRTTATPAGASLEWSQARGLLFSPAPQPRRLLPGPQENSVQSSACGRQHLEPTGTIDMRGPGQADCAVAIGRPLGEVVTLRVLESSLNCSAGDMLLLWGRLTWRKMCRKLLDMTFSSKTNTLVVRQRCGRPGGGVLLRYGSQLAPETFYRECDMQLFGPWGEIVSPSLSPATSNAGGCRLFINVAPHARIAIHALATNMGAGTEGANASYILIRDTHSLRTTAFHGQQVLYWESESSQAEMEFSEGFLKAQASLRGQYWTLQSWVPEMQDPQSWKGKEGTSRGPFEQKLISEEDLNMHTGHHHHHH
B2: ADAMTS13 A1146I variant (Exemplified A1146I variant) (protein)
chain: B1 chain with I1070A, A1072I
B3: ADAMTS13 P1180I variant (Exemplified P1180I variant) (protein)
chain: B1 chain with I1070A, P1106I
B4: Myc/His6-tagged ADAMTS13 P1182V variant (Exemplified P1182V variant) (protein)
chain: B1 chain with I1070A, P1108V
B5: ADAMTS13 P1180K variant (Exemplified P1180K variant) (protein)
chain: B1 chain with I1070A, P1106K
B6: Myc/His6-tagged ADAMTS13 A1146V variant (Exemplified A1146V variant) (protein)
chain: B1 chain with I1070A, A1072V
B7: ADAMTS13 P1182K variant (Exemplified P1182K variant) (protein)
chain: B1 chain with I1070A, P1108K
B8: ADAMTS13 P1182I variant (Exemplified P1182I variant) (protein)
chain: B1 chain with I1070A, P1108I
B9: Myc/His6-tagged recombinant wildtype human ADAMTS13 (Exemplified wildtype ADAMTS13) (protein)
chain: B1 chain with I1070A
B10: Myc/His6-tagged ADAMTS13 P1180V variant (Exemplified P1180V variant) (protein)
chain: B1 chain with I1070A, P1106V
B11: Myc/His6-tagged ADAMTS13 A1144V variant (Exemplified A1144V variant) (protein)
chain: B1 chain with I1070V

Target: T1, FRETS-VWF73 substrate (VWF fragment …)
For B1, the “proteolytic activity, FRETS-VWF73 assay” value was “induces a similar constitutive activity to that seen with the A1144V, A1146V variants”.
B2 was tested, and the “proteolytic activity, FRETS-VWF73 assay” value was “induces a similar constitutive activity to that seen with the A1144V, A1146V variants”.
For B3, the “proteolytic activity, FRETS-VWF73 assay, fold increase” value (shortened to “proteolytic activity … fold increase”) was “Induces greater than 10-fold increase in activity”.
With B4 the “proteolytic activity, FRETS-VWF73 assay, absence of VWF-D4CK, fold over wildtype ADAMTS13” value was “more than 4-fold higher than wildtype ADAMTS13” and the “proteolytic activity, FRETS-VWF73 assay, in the absence and in the presence of the activating VWF-D4CK fragment” value was “displayed significantly higher proteolytic activity compared to wildtype ADAMTS13 and the R568K/F592Y/R660K/Y661F/Y665F variant”.
B5 was tested, and the “proteolytic activity … fold increase” value was “Induces greater than 10-fold increase in activity”.
With B6 the “proteolytic activity, FRETS-VWF73 assay, absence of VWF-D4CK, fold over wildtype ADAMTS13” value was “more than 4-fold higher than wildtype ADAMTS13” and the “proteolytic activity, FRETS-VWF73 assay, in the absence and in the presence of the activating VWF-D4CK fragment” value was “displayed significantly higher proteolytic activity compared to wildtype ADAMTS13 and the R568K/F592Y/R660K/Y661F/Y665F variant”.
For B7, the “proteolytic activity … fold increase” value was “Induces greater than 10-fold increase in activity”.
With B8 the “proteolytic activity … fold increase” value was “Induces greater than 10-fold increase in activity”.
B9 was tested, and the “proteolytic activity, FRETS-VWF73 assay, basal (no VWF-D4CK); reference for all other activities” value was “All activities are presented relative to the basal activity of wtADAMTS13 (100%)”.
For B10, the “proteolytic activity, FRETS-VWF73 assay, absence of VWF-D4CK, fold over wildtype ADAMTS13” value was “more than 4-fold higher than wildtype ADAMTS13” and the “proteolytic activity, FRETS-VWF73 assay, in the absence and in the presence of the activating VWF-D4CK fragment” value was “displayed significantly higher proteolytic activity compared to wildtype ADAMTS13 and the R568K/F592Y/R660K/Y661F/Y665F variant”.
For B11, the “proteolytic activity, FRETS-VWF73 assay, absence of VWF-D4CK, fold over wildtype ADAMTS13” value was “more than 4-fold higher than wildtype ADAMTS13” and the “proteolytic activity, FRETS-VWF73 assay, in the absence and in the presence of the activating VWF-D4CK fragment” value was “displayed significantly higher proteolytic activity compared to wildtype ADAMTS13 and the R568K/F592Y/R660K/Y661F/Y665F variant”.
